Laboratory results as given in the supplement of paper PMC9112550, “Optimization of the antimicrobial peptide Bac7 by deep mutational scanning” (BMC Biology, 2022).

Tested on: Escherichia coli TOP10
Experiment: shrunken log2 fold change of peptide-encoding DNA abundance (4.5 h post-induction vs induction); higher = less antimicrobial activity (less host growth inhibition)
Details: time post-induction: 4.5 h; library: site-saturation at positions 5, 18, 19, 20
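Further: peptides expressed intracellularly from a pBAD plasmid library in pooled LB shake-flask culture, induced with 0.3% L-arabinose, DNA abundance read by NGS, three biological replicates, DESeq2 with apeglm shrinkage.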

First: RRIRDRPPRLPRPRPRPLALPRP
Second: RRIRERPPRLPRPRPRPLFQPRP
The “shrunken log2 fold change” value of the first is higher: 0.0811 for the first, -0.271 for the second.

RRIRKRPPRLPRPRPRPTNMPRP and RRIRTRPPRLPRPRPRPFRRPRP are within 0.2 log units of each other in “shrunken log2 fold change” value: -0.155 for the first, -0.0209 for the second.

Going from RRIRRRPPRLPRPRPRPWWFPRP to RRIRARPPRLPRPRPRPIMYPRP, the “shrunken log2 fold change” value rises from -0.378 to -0.161.

RRIRMRPPRLPRPRPRPAHIPRP and RRIRVRPPRLPRPRPRPSWTPRP are within 0.2 log units of each other in “shrunken log2 fold change” value: -0.161 for the first, -0.0613 for the second.

Going from RRIRFRPPRLPRPRPRPHNMPRP to RRIRPRPPRLPRPRPRPHSRPRP, the “shrunken log2 fold change” value rises from -0.896 to -0.198.

Compared with RRIRPRPPRLPRPRPRPTNQPRP, RRIRARPPRLPRPRPRPTCGPRP is higher in “shrunken log2 fold change” value: -0.182 for the first, 0.512 for the second.

Going from RRIRERPPRLPRPRPRPIQHPRP to RRIRGRPPRLPRPRPRPWMFPRP, the “shrunken log2 fold change” value rises from -0.529 to 0.0448.

RRIRKRPPRLPRPRPRPCGNPRP and RRIRWRPPRLPRPRPRPKCDPRP are within 0.2 log units of each other in “shrunken log2 fold change” value: 0.0169 for the first, 0.033 for the second.

RRIRQRPPRLPRPRPRPGNGPRP and RRIRHRPPRLPRPRPRPKKMPRP are within 0.2 log units of each other in “shrunken log2 fold change” value: 0.0197 for the first, -0.132 for the second.

Going from RRIRRRPPRLPRPRPRPGPAPRP to RRIRDRPPRLPRPRPRPNMRPRP, the “shrunken log2 fold change” value falls from 0.562 to -0.00803.

First: RRIRIRPPRLPRPRPRPRFAPRP
Second: RRIRIRPPRLPRPRPRPSCVPRP
The “shrunken log2 fold change” value of the first is higher: 0.129 for the first, -0.544 for the second.

First: RRIRDRPPRLPRPRPRPYPMPRP
Second: RRIRKRPPRLPRPRPRPMQQPRP
The “shrunken log2 fold change” value of the first is lower: -0.348 for the first, -0.000844 for the second.

Compared with RRIRERPPRLPRPRPRPYFPPRP, RRIRTRPPRLPRPRPRPKAIPRP is higher in “shrunken log2 fold change” value: -0.307 for the first, 0.00211 for the second.

Compared with RRIRWRPPRLPRPRPRPCHNPRP, RRIRCRPPRLPRPRPRPKHTPRP is higher in “shrunken log2 fold change” value: -1.64 for the first, -0.0232 for the second.

RRIRDRPPRLPRPRPRPQCQPRP and RRIRYRPPRLPRPRPRPVYGPRP are within 0.2 log units of each other in “shrunken log2 fold change” value: -0.00822 for the first, -0.0722 for the second.

First: RRIRRRPPRLPRPRPRPREGPRP
Second: RRIRHRPPRLPRPRPRPHLDPRP
The “shrunken log2 fold change” value of the first is higher: 1.33 for the first, -0.214 for the second.

First: RRIRSRPPRLPRPRPRPRDSPRP
Second: RRIRHRPPRLPRPRPRPVRGPRP
The “shrunken log2 fold change” value of the first is lower: -0.158 for the first, 0.328 for the second.

Going from RRIRLRPPRLPRPRPRPYNNPRP to RRIRARPPRLPRPRPRPSWNPRP, the “shrunken log2 fold change” value rises from -1.03 to -0.19.

First: RRIRSRPPRLPRPRPRPGHQPRP
Second: RRIRGRPPRLPRPRPRPWGHPRP
The “shrunken log2 fold change” value of the first is lower: -0.167 for the first, 0.152 for the second.

First: RRIRSRPPRLPRPRPRPKLIPRP
Second: RRIRLRPPRLPRPRPRPEFEPRP
The “shrunken log2 fold change” value of the first is lower: -0.257 for the first, 0.0191 for the second.

First: RRIRWRPPRLPRPRPRPDNWPRP
Second: RRIRERPPRLPRPRPRPFPHPRP
The “shrunken log2 fold change” value of the first is higher: 0.104 for the first, -0.15 for the second.

RRIRYRPPRLPRPRPRPLPLPRP and RRIRGRPPRLPRPRPRPINDPRP are within 0.2 log units of each other in “shrunken log2 fold change” value: -0.197 for the first, -0.211 for the second.

RRIRTRPPRLPRPRPRPKSPPRP and RRIRNRPPRLPRPRPRPPKIPRP are within 0.2 log units of each other in “shrunken log2 fold change” value: -0.0758 for the first, 0.0999 for the second.

Compared with RRIRERPPRLPRPRPRPMDMPRP, RRIRPRPPRLPRPRPRPKNPPRP is higher in “shrunken log2 fold change” value: -0.189 for the first, 0.0941 for the second.

RRIRIRPPRLPRPRPRPTCRPRP and RRIRDRPPRLPRPRPRPMDTPRP are within 0.2 log units of each other in “shrunken log2 fold change” value: -0.103 for the first, -0.0196 for the second.

RRIRKRPPRLPRPRPRPWVWPRP and RRIRNRPPRLPRPRPRPAMKPRP are within 0.2 log units of each other in “shrunken log2 fold change” value: 0.445 for the first, 0.284 for the second.

First: RRIRGRPPRLPRPRPRPSAHPRP
Second: RRIRPRPPRLPRPRPRPYIRPRP
The “shrunken log2 fold change” value of the first is higher: 1.12 for the first, -0.297 for the second.

Going from RRIRERPPRLPRPRPRPGEKPRP to RRIRVRPPRLPRPRPRPRYIPRP, the “shrunken log2 fold change” value falls from -0.00142 to -0.458.

Compared with RRIRNRPPRLPRPRPRPCPYPRP, RRIRKRPPRLPRPRPRPFPLPRP is higher in “shrunken log2 fold change” value: -0.0128 for the first, 0.289 for the second.

RRIRSRPPRLPRPRPRPPHCPRP and RRIRLRPPRLPRPRPRPMWYPRP are within 0.2 log units of each other in “shrunken log2 fold change” value: 0.105 for the first, 0.0493 for the second.

RRIRTRPPRLPRPRPRPKADPRP and RRIRMRPPRLPRPRPRPHANPRP are within 0.2 log units of each other in “shrunken log2 fold change” value: -0.0127 for the first, 0.0143 for the second.

RRIRKRPPRLPRPRPRPEHCPRP and RRIRVRPPRLPRPRPRPLHLPRP are within 0.2 log units of each other in “shrunken log2 fold change” value: 0.0607 for the first, -0.133 for the second.

RRIRHRPPRLPRPRPRPKLHPRP and RRIRFRPPRLPRPRPRPNQKPRP are within 0.2 log units of each other in “shrunken log2 fold change” value: -0.271 for the first, -0.159 for the second.

RRIRHRPPRLPRPRPRPGFFPRP and RRIRHRPPRLPRPRPRPRHMPRP are within 0.2 log units of each other in “shrunken log2 fold change” value: 0.0196 for the first, -0.0251 for the second.

First: RRIRGRPPRLPRPRPRPKFVPRP
Second: RRIRWRPPRLPRPRPRPYTTPRP
The “shrunken log2 fold change” value of the first is higher: 0.458 for the first, -0.537 for the second.

Going from RRIRCRPPRLPRPRPRPVCKPRP to RRIRWRPPRLPRPRPRPYFNPRP, the “shrunken log2 fold change” value falls from -0.238 to -1.06.

Compared with RRIRVRPPRLPRPRPRPSVEPRP, RRIRFRPPRLPRPRPRPPMHPRP is higher in “shrunken log2 fold change” value: -0.0446 for the first, 0.162 for the second.

With RRIRTRPPRLPRPRPRPAIYPRP the “shrunken log2 fold change” value was -0.372.
